Assay results from patent publication US8597645.

Target: Caspase-8 (endogenous, in melanocytes and melanoma cells) (human) (UniProt Q14790)
Assay: cell-based or functional assay

Caspase-8 (endogenous, in melanocytes and melanoma cells) (human), sequence (Q14790 whole entry): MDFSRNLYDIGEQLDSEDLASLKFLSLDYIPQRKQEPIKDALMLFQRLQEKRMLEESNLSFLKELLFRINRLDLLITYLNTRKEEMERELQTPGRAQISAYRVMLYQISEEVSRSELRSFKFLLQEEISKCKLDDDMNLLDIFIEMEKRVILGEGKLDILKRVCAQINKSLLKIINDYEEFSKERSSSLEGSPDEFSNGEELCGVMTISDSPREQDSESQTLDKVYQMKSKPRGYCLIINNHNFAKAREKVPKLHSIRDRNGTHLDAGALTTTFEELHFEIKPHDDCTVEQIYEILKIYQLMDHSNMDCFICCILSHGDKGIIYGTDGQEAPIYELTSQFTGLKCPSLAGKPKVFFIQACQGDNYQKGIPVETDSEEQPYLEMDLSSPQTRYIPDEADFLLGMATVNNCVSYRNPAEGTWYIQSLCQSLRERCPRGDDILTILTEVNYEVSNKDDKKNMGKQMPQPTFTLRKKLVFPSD

Concentration needed to block ET-1 induced E-cadherin down-regulation, relative to the 'IETD' inhibitor: 10 fold
Substance: Cell permeable caspase inhibitor containing the sequence DEVD (from UniProt P08620 7-22) (peptide)
